# Experimental data: the DeepSol protein solubility set
# Experiment: soluble on expression in E. coli; label from the status in PepcDB or PDB records
row,Sequence,soluble on expression in E. coli
1,MGSDKIHHHHHHMLEFPALRPFLWSGRYNRPLMPLTYLTRIAQTPAPTFQEEARAELIARLWSDLGYVTERDEVGNVLTRITPPGTEGRPALLLAAHLDTVFGGQTDVTVHDEGQRLRGPGVGDNSASLAVVTAMLRDFRTAPPLLRRPLWVAANVGEEGLGDLRGAKHLLAAHRPQLGAFVAVDGYLGVAVTQAVGVRRYRAQFVGPGGHSWGDQAPSALHALGLAISGLYALHLPAQPRTTLNVGTAAGGNSVNSIAGQAELLLDLRSLGADELAALDSRAQDVLHRAARDAGVSLRLERVGDRPGGDLHTGALLGMAHAAAREVRVDLRLAASSTDANAAAPHVLPALAFGVYRGGNAHREDEWVEKRSLAPGLTALKRLVALYQAAPLA,not soluble
2,MVKINITAETNGFVLLEHGEVFIKNNNDVSLKLIPNEQEVPLIINIEFANKGGRIASVDRNIVNDKLVFTCNNFQSEPGNWGGIIEPMLIAEMDDCNLYLSFLVWNIDTTNYNRLLNYSFWLKKK,not soluble
3,SNAVTATQLAAKATTLYYLHKQAMTDEVSLLLEQALQLEPYNEAALSLIANDHFISFRFQEAIDTWVLLLDSNDPNLDRVTIIESINKAKKLM,soluble
4,LTCYGDSGQPVDWFVVYKLPALRGSGEAAQRGLQYKYLDESSGGWRDGRALINSPEGAVGRSLQPLYRSNTSQLAFLLYNDQPPQPSKAQDSSMRGHTKGVLLLDHDGGFWLVHSVPNFPPPASSAAYSWPHSACTYGQTLLCVSFPFAQFSKMGKQLTYTYPWVYNYQLEGIFAQEFPDLENVVKGHHVSQEPWNSSITLTSQAGAVFQSFAKFSKFGDDLYSGWLAAALGTNLQVQFWHKTVGILPSNCSDIWQVLNVNQIAFPGPAGPSFNSTEDHSKWCVSPKGPWTCVGDMNRNQGEEQRGGGTLCAQLPALWKAFQPLVKNYQPCNGMARKPSRAYKI,soluble
5,MLPFLAASPGLGDVRAPAIWLGLVSQPSRTPIITKNSKTKRKTDGSTTRQSSSLGPRSSPLRSAGGQLRKTTRSELKKSHFHLGSWNAQSLLGPRLASGVEYLKNSTCHVVNLQETRFFSMASIDQPEFQLLFSPKTNSKDLGLGFFVKKCQDLEVINVSWIGVGIASLELEFRKVKIMVLNVYAPVCKSRSENDAKRFFERLRAEYIQLRKSFKGPIVLGGDFNAATSCSTNDELAPWICGNVFGNSNNHGDFFFNFLASTRLFQLNSRFRKRLASRWTFAGKKGVGRTEIDFFISNRIDLVEDVSTFPNLHNLSDHRLIRSRWVISVKSERDHAFKSRRPPSTGKERDWTLYEDAIKDLRKHATLGSYDSFVKTLRQGLVPLPAHKPHKFSQRTIMILQERRQVLESSVPDIAKLRKLSQEARKSITEDLTQKYDSILEACRKKRSSKILNKSIPAEIPLQYLEWPDGSLTANRIEIRKIVESHFKTLYEAPTSSPSHPRNPNSNPPNSDPVPAILKCEVRLEIRKLKTKSAPGLDNVDAAMLKNGGDTVVDSVTALFNDILHHNKVPDLWKIADVKLIPKKAKATKIKDFRPISLLPILSKMFSSILTRRLTPTLESYLDESQTKVFRKGRCCADNIQSLTMLIEKCNEFQLPLLLLFIDYQTAFDKISHSSVVSSLERAGADPAMRKMIQELMEGGQAEITVHDKKLKVNLCTGIRQGDSASPALFSAALQAILTDCDNELAGVGISVEGRHIRRLEFADDVVLICSTPEEVQERLEILDRISSNYGLKINQSKTVLLKNKFCRSQDILFNGSPIIPVPGCRYLGRWIDISGSIDEEISRRIRAGWGALVGIKEVLRIMPNKERIILFKQNVLPALLYASETWTCNAGSTLRLKRTVTGLIDAAEIRGWNFNLERYLLAKQSRFAGHILRRDPF,not soluble
6,MSTVKEAVDVEVPVHTAYNQWTQFEEFPHFMEGVEEVRQLDERHNHWTTQVSGVKREFDTEIVDQLPDERITWRTTTGDTNQKGTVRFQRLDDTHTRVELVMDVDPTGVAEKTGDMLGVIDRRVKGDMQRFKEYIEKRGGESGAWRGRIRPGELEHHHHHH,soluble
7,MSLQRYFIELTKQQIEEAPTFSITGEEVHHIVNVMRMNEGDQIICCSQDGFEAKCELQSVSKDKVSCLVIEWTNENRELPIKVYIASGLPKGDKLEWIIQKGTELGAHAFIPFQAARSVVKLDDKKAKKKRERWTKIAKEAAEQSYRNEVPRVMDVHSFQQLLQRMQDFDKCVVAYEESSKQGEISAFSAIVSSLPKGSSLLIVFGPEGGLTEAEVERLTEQDGVTCGLGPRILRTETAPLYALSAISYQTELLRGDQEGGSHHHHHH,soluble
8,GPGSMPPRRKSECLSSYAVDTTPSFQDEKFIEQLLHFVGANDEVSLLTMTAVALGAECYQVDLGQQIVVDARLDFINFCAKQGYCAAKVVHLLKWLCTFQERVEDGCNTQEMQEEVIAFVTSEVEEEWKWKRALQAEEALWEVQSSSKTSARRGHRAAEKVVEETEAVSTVPKENIYLQREDIGPFSTWLIQGIVQHASLYHYVATHARMVGEPEEFNYFLEVPVSAPPLRNALAPESVPQEPPLAKAQQDVEEQRASELETYKKEYEEAMALEQLRLQTIQNERDMKVFIENEGSMRAVEDTYESLQVDLSKRQRQILERITAAEKALGIFPFVQPQ,not soluble
9,MGSDKIHHHHHHMNKLEERSQHRKSRFRFLVISTFWRVLLLLKNDAEPLFHLGNIHYAYGHKASAMNYWKEAVSKNREHEKAWHNLVQCAVIQEEWEQAAEGLTILCRNHPTRFEYMSLYTHALKKLGKKEELEEWYLSHINGPHHEWAIEGLGMLYIRTRREIDAFKLLSPFVRKFPNRPVGLKILGISSIRTNQYEAGLTFLEKSLELKEDKEVKSLVDRVKRLKKVRGGNR,not soluble
10,MGSDKIHHHHHHMSIIYRRRSIRKYQKKDVPDELVKEIIRAAMHAPSACNQQPWHFVVIRNEETKKKIAEIHPHAQMSAEAPVVILVCGDPTLEKCKGYWIQDCSAAVENLLLRATELGLGAVWCGVYPREERVKAFRELLGIPEHVVPFALVPVGYPAEHPVQVDRFKPERIHYEKW,not soluble
11,MSKNMQNTSYRKLDVDSFDPEQYDENDETVDTPGLGPDERAVQGFLSSNRLEDALHAALLSPPLKTKDQNVKDRATQLVTKVLQSFKNAEIEATVQKLSIEESDILMKYVYKSMEIGADAAVCQSLLAWHAQLVAKFGHGAIMRVFSGRQRL,soluble
12,MSDASLKTYQKQWAYQKYWVMAHSQQHYNALRELFKGNQWSEEKVLTFHCLIEEAQAIPPTVKSLRTAYQHVWGYFKKVASQEEKDHFKDLDAQLETKSEEMLCFLQEMTAHYQPSYLLSCRLITKGP,not soluble
13,MKGLFVTIEGPEGSGKTTLIQSLLPYFEQKEQKVMATREPGGIAISEDIRTILHKQEYTMMEARTEALLYAAARRQHLVEKVMPALNEDYLVLCDRFIDSSLAYQGYARGLGMDKVFEINRFATEDCMPSLTIYLDIEPEVGLARIAKDAGREVNRLDMEDISFHKRVREGYLQVVERFSDRIVLVNADQPMEKLIEEVIQVIEDKLL,soluble
14,MSSRKKVRVLLLKNKTVPIDKYELECRSKAFEPIFVPLIKHTHVIQDFRNVLNTIPNYLNTINYIIITSQRTVESLNEAIIPTLTSEQKAALLSKTVYTVGPATANFIRRSGFINVKGGEDAGNGSILADIIIDDLSTDIKACPPSELLFLVGEIRRDIIPKKLHSKGIKVREVVTYKTEELSDGFKRFIHAMKECDEDEVFSDWVVVFSPQGTKEITQYLGDSNRLPGSHLRVASIGPTTKKYLDDNDVTSDVVSPKPDPKSLLDAIELYQRHK,soluble
15,MGSDKIHHHHHHMISQNSCQINESDLKNLKDWFYRYVRSFYSSDSIIQQAILLKEKHSLRVCNEILNIGKKLDLSHNALRLAEVMALFHDIGRFQQFVRYQTFVDQKSENHGELGVRILKQEKALAALDRDARELILKAISYHNRLTIPENESPICTYFSRLLRDADKLDIYYVVTTCYNSNGTERKAAVELDLPDTPEVSGEILISLIEEKMISLHQLKSLNDFKLLQMAWVYDINYLPTFRMIYERNYLRKIRDTLPGTEEIEQVYCKLISFLKAKL,not soluble
16,MDAEEKMGVELSSPSAIMEHARRLYMSKDYRSLESLFGRCLWKSYNLDLWMLYIEYVRKVSQKKFKLFEVYEFTLGQFENYWDSYGLFKEYIEELGKIEDEQTRIEKIRNGYMRALQTPMGSLSELWKDFENFELELNKITGKKIVGDTLPLFQSSFQRYQQIQPLIRGWSVKNAARLIDLEMENGMKLGGRPHESRMHFIHNYILDSFFYAEEVYFFYSEYLIGIGQKEKAKKVVERGIEMSDGMFLSLYYGLVMDEEAVYGDLKRKYSMGEAESAEKVFSKELDLLRINHLNYVLKKRGLELFRKLFIELGNEGVGPHVFIYCAFIEYYATGSRATPYNIFSSGLLKHPDSTLLKEEFFLFLLRIGDEENARALFKRLEKTSRMWDSMIEYEFMVGSMELFRELVDQKMDAIKADAILPPLPPREHNVQMEGILGRYHCFLDSFNFLDLKIRDNSRLLDEFMENLPKISQQNNVLSNLRVEKVISLLKSVQ,soluble
17,MMEPITKETRFNELPQQIKQKLINIYRSSHQQYLSMEMLKPTKFNLLYSQTQDLQTRNLQKNFKLLVESAEKLKRMWNLNKDEVDFRYLHENLKKSLEEFKEEVMLYKKNEGNTEFLDEIAMTYAMLRNKLESLTKERRA,not soluble
18,MSEISIKRAHENEKDAEEDMEPATKKIKSDDVTEEQEKPEIVEKAEKVKSMKKEEAGSLKSPPNDEMESEFTHVLNELSKQKETIKKLLDDLRADNKKRKTHNIRTIFQRKD,not soluble
19,MIANRPQHEKWAVIVNEFGEVGIDGAALLNDELAVAEIAGGCLCCVAGPQMTATVATLLRREKPDRLLIEASGLAHAAGVIDELRAKPLGEALEVAAVLTLVDPRQFIQPDYHRQPLYRDQISIADVLVANKIDTADIPTMEAFRAQAAALFPPKSLVGEVRDGQLDVAWLDAELAAKPRYRPAVLPDNASAWQSAGWTFDPELNFDGERLTRLFDGLPAKVPGLVRAKGVFRVLDSWVWLNWAAGQWGAAQVSWRRDSRFELIAPEFDAAAVEAWLKECLELEHHHHHH,not soluble
20,MKSAELKYLDFEDFTKLIALAKEKINPIYSSSFMIYIAAMTGMRFSELLGLTWDNVDFEKGQIYVKRTWDIYKNNFAPTKNDQSVRFLAIDSSTMQVMINYKEQQEKLLKRLEIEPEHPFVFYNIKNGLITNNSLNKQLRNMCKKLGFKKIITCHGLRHTHASTMLYKGINILYVSKRLGHSSLNVTMSVYSHILKELEEKDNENIKKIFSEINDELEHHHHHH,soluble
21,MGSSHHHHHHSSGLVPAGSHMASMTGGQQMGRGSMSLQVNLLNNTFANPFMNAAGVMCTTTEELVAMTESASGSLVSKSCTPALREGNPTPRYQALPLGSINSMGLPNNGFDFYLAYAAEQHDYGKKPLFLSMSGLSMRENVEMCKRLAAVATEKGVILELNLSCPNVPGKPQVAYDFDAMRQCLTAVSEVYPHSFGVKMPPYFDFAHFDAAAEILNEFPKVQFITCINSIGNGLVIDAETESVVIKPKQGFGGLGGRYVLPTALANINAFYRRCPGKLIFGCGGVYTGEDAFLHVLAGASMVQVGTALQEEGPSIFERLTSELLGVMAKKRYQTLDEFRGKVRTLDGTAESTR,soluble
